Measurements taken from publication PMC4414373, “Relevance of glycosylation of S-layer proteins for cell surface properties” (Acta Biomaterialia, 2015).

Biological target: the molecule itself
Assay: atomic force microscopy; S-layer (glyco)protein at 50 ug/mL recrystallized on gold-coated SPR and QCM-D sensor surfaces; lattice imaged in contact mode in a liquid cell under 100 mM NaCl

B1: recombinant S-layer protein rSgsE(131-903), 130 amino acid N-terminal truncation of SgsE (domain or fragment, UniProt Q8VTF1 131-903, looked up)
chain: ATKLDKMRQELKAAVDAKDLKKAEELYHKISYELKTRTVILDRVYGQSTRELLRSTFKADAQALRDSLIYDITVAMKAREAQDAVKAGNLDKAKAALDQVNQYVSKVTDAFKAELQKAAQDAKAAYEAALPPKVESVTAVNAKTLEIKFNKAVDAATVIDNKGTSDTSDDVVKATAITLKAIDDQVPVSTVKASLSDDKKTLKLVVDGAQFFTKRYVVDIKNVKTLDGKDVPAYTTTIDTTDSVRPSVLSFSYADNGLTLKVKFSEPLASVGTVKLYDGTTEISVSPKFTAGDDEMTINLASSSVPVNKDLTLKIFGAVDYNGNVINPNPAELTVKKTTVDITKPVVQSIEAVNTKTVKVTFSEKLLSAPTIKIGGQTASVSVDSTGLVYTATLASALSKGVYAVEVSDYKDLAGNSGDAYTKVVQLKADNTAPKFVSSQVVKINGVEHLVLTFDEEVTTGSNITVVQSSDKYIDENNVLKAVGADLKTTSDNFKLYLPTDGKSKSVALNISSLPKGTYTVTLPNGLVSDLADNPYAERKQITFVRGSDSLTTKPALDKDYDSNGVKADNNNELVFAFTQNLDASALNLSNFNINGLTVTKAVFDGDTKHIRVTLAPGANTWTGTHVITISNIKNTSGLVMDTVTVNEYMKENVAPTFTATLTSADVIRVDFSEPVANATISRALSANNFIVKVDGNVVTVSNVYEDNNATNLVQGSKGYKTVYLKLQSPVTDLSKPITLSATDIVDVNQTGAITDNNVVGNNVSATVVNVAK
notes: S-layer protein SgsE of Geobacillus stearothermophilus NRS 2004/3a, residues 131-903; non-glycosylated; calculated molecular weight 82,800 Da; also called recombinantly produced non-glycosylated form of SgsE; source: E. coli BL21 Star (DE3), purified
- binding result: binds
